Results as given in patent US9920105B2, “Human ferritin-derived fusion polypeptide” (Kyungpook National University Industry-Academic Cooperation …, priority 2013, dated 2018).

Experiments:
Type in all cases: in vivo
[1] = system: C57BL/6J mice; experiment: Airway hyper-responsiveness (AHR) with FlexiVent system in APO-induced asthma model; details: 50 uL of 1 mg/ml, 1 h before allergen challenge; in comparison with control ferritin; FIG. 17a
Method: (§1) Wild-type C57BL/6J mice were purchased from Jackson Laboratory (Bar Harbor, Me., USA), and bred in a pathogen-free animal facility. All animals were fed with a normal diet (PMI Lab Diet) with free access to water. 6-8-week-old female mice were used for this study. Animal care and experimental procedures were performed with the approval of the Animal Care Committee of KAIST.
(§2) Asthma induction was performed by the existing method (Corry D B, Folkesson H G, Warnock M L, Erle D J, Matthay M A, et al. (1996) J Exp Med 183: 109117).
Briefly, Aspergillus oryzae protease (1 mg/mL in PBS, Sigma-Aldrich) and chicken egg ovalbumin (OVA, 0.5 mg/mL in PBS, Sigma-Aldrich) allergen (APO) were mixed 1:9 (v/v) immediately before administration. Mice received four intraperitoneal sensitizations and the intranasal challenge every 4 days (0, 4, 8, 12, 16) with 50 uL of allergen. For intranasal challenge, mice were lightly anesthetized with isoflurane inhalation (Abbott Laboratory, Abbott Park, Ill., USA). A 50 uL of AP1-retaining ferritin cage (GG-AP1L, 157cysAP1-PBNC) or AP1-not-inserted ferritin cage (wt FTL), which was diluted to 1 mg/ml in PBS, was administered 1 h before allergen challenge. […]
Briefly, 16 h after final intranasal challenge, AHR was measured with a FlexiVent system (SCIREQ Inc., Montreal, Canada). […]

[2] = system: C57BL/6J mice; experiment: BAL cytology in APO-induced asthma model; details: 50 uL of 1 mg/ml, 1 h before allergen challenge; in comparison with control ferritin
Method: as §1, §2
(§3) Briefly, Aspergillus oryzae protease (1 mg/mL in PBS, Sigma-Aldrich) and chicken egg ovalbumin (OVA, 0.5 mg/mL in PBS, Sigma-Aldrich) allergen (APO) were mixed 1:9 (v/v) immediately before administration. Mice received four intraperitoneal sensitizations and the intranasal challenge every 4 days (0, 4, 8, 12, 16) with 50 uL of allergen. For intranasal challenge, mice were lightly anesthetized with isoflurane inhalation (Abbott Laboratory, Abbott Park, Ill., USA). A 50 uL of AP1-retaining ferritin cage (GG-AP1L, 157cysAP1-PBNC) or AP1-not-inserted ferritin cage (wt FTL), which was diluted to 1 mg/ml in PBS, was administered 1 h before allergen challenge.
For phenotypes of allergic asthma, AHR, BAL cytology, BAL glycoprotein assay, and lung histopathology were performed by the existing method (Lee, S. H., et al. (2003) Nat. Med. 9, 128111286). […]

[3] = system: C57BL/6J mice; experiment: Secreted glycoprotein in BAL fluid (modified ELISA) in APO-induced asthma model; details: 50 uL of 1 mg/ml, 1 h before allergen challenge; FIG. 17d
Method: as §1
Briefly, Aspergillus oryzae protease (1 mg/mL in PBS, Sigma-Aldrich) and chicken egg ovalbumin (OVA, 0.5 mg/mL in PBS, Sigma-Aldrich) allergen (APO) were mixed 1:9 (v/v) immediately before administration. Mice received four intraperitoneal sensitizations and the intranasal challenge every 4 days (0, 4, 8, 12, 16) with 50 uL of allergen. […]
Levels of secreted glycoprotein were measured with modified ELISA by the existing method (Lee, S. H. et al., (2004) J. Allergy Clin. Immunol. 113, 72778.). […]
40 ul of each sample was transferred to an ELSA plate Greiner, Kremsmunster, Austria), and incubated at 37° C. for 2 h. […] After final washing upon the completion of the reaction, 70 ul of alkaline phosphatase substrate (5 mmol in 0.1 mol/L alkaline buffer, Sigma-Aldrich) was added, and developed until a mucin standard curve was readily apparent. After termination of the reaction with addition of 40 ul of 0.5 N sodium hydroxide, optical density was measured at 405 nm by an ELISA reader (BioRad, Hercules, Calif., USA).

[4] = system: C57BL/6J mice; experiment: Lung microstructure observation (PAS-stained lung slides) in APO-induced asthma model
Method: as §1, §3
Finally, the experimental mice were sacrificed, and lung slide specimens stained with periodic acid Schiff (PAS) were prepared. Then, changes of inflammatory cells and goblet cells were observed (arrowhead: mucin-positive goblet cell, arrow: inflammatory cell).

B1: GG-AP1L: human ferritin light chain having AP1L (CRKRLDRNC) inserted in GG cassette; AP1-retaining ferritin cage used in asthma model (protein)
chain: MSSQIRQNYSTDVEAAVNSLVNLYLQASYTYLSLGFYFDRDDVALEGVSHFFRELAEEKREGYERLLKMQNQRGGRALFQDIKKPAEDEWGKTPDAMKAAMALEKKLNQALLDLHALGSARTDPHLCDFLETHFLDEEVKLIKKMGDHLTNLHRGSCRKRLDRNCGGPEAGLGEYLFERLTLKHD
modifications: left off: small tags and cut ends
notes: AP1-retaining ferritin cage used in asthma model
airway hyper-responsiveness (AHR) [1]: significantly suppressed
count of eosinophils in BAL fluid [2]: significantly decreased
count of inflammation cells in bronchoalveolar lavage (BAL) fluid [2]: significantly decreased
amount of secreted glycoprotein in BAL fluid [3]: significantly reduced
counts of mucus-producing goblet cells [4]: significantly reduced
counts of peribronchial inflammatory cells [4]: significantly reduced
